Test results taken from the supplement of paper PMC10567573.

B1: PTPN9 (parent)
chain: ILFSLPPALDWDSVHVPGPHAMTI

Variants of: B1
Test: protein stability index of a GFP-peptide fusion (GPS, HEK-293T) (PSI 1-6); higher = more stable
Details: c terminus: a fixed tail appended
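Further: lentivirally expressed fusions sorted by FACS into six bins by GFP to DsRed ratio, PSI derived from sequencing read proportions per bin multiplied by bin number.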

Protein stability index of substitutions, site by site:
P7: N 2.98 | H 4.13 | F 3.57 | A 1.87 | M 1.68 | Q 2.33 | E 2.43 | C 2.03 | I 2.49 | R 2.18 | D 1.01 | V 4.23
S4: I 3.06 | P 2.01 | R 2.6 | Q 3.13 | E 1.75 | A 2.31 | M 3.28 | K 1.98 | G 2.46 | H 3.16 | N 2.5 | F 2.61 | T 2.17 | V 2.49 | W 2.79 | D 2.38 | L 2.55
A8: G 2.36 | I 1.81 | W 2.68 | N 2.04 | T 3.32 | M 4.44 | D 1.92 | H 2.5 | Q 3.82 | K 2.87 | F 3.41 | S 3.4 | R 2.43 | C 3.81
F3: D 1.77 | W 1.61 | K 1.95 | R 2.25 | Y 2.21 | N 1.83 | C 2.62 | L 4.01 | P 2.27 | Q 3.1 | I 2.7 | A 1.1 | S 1.49 | E 1.87 | M 1.21 | T 2.38 | H 2.03
W11: Y 3.05 | G 2.23 | D 1.75 | H 2 | I 3.5 | A 3.48 | P 2.41 | S 1.9 | Q 2.27 | F 3.1 | R 2.11 | M 2.73 | T 2.23 | L 2.72 | N 2.26 | C 3.67 | E 1.57 | V 2.38
L2: W 2.54 | D 1.26 | M 3.37 | C 3.86 | P 1.93 | K 2.73 | I 3.33 | H 2.3 | V 2.54 | F 2.06 | E 2.29 | T 2.62 | N 2.6 | G 1.68 | Q 2.47 | R 1.7 | A 2.12
L9: W 4.62 | A 2.29 | Y 4.25 | K 2.63 | T 3.24 | I 1.96 | N 2.8 | D 1.83 | M 2.52 | C 2.52 | R 2.07 | S 3.08 | G 3.71 | F 2.33 | E 1.93
D12: G 1.97 | I 4.7 | A 3.66 | Q 1.88 | H 2.07 | C 2.75 | T 2.37 | N 2.5 | S 3.29 | M 2.88 | P 4.93
P6: R 3.66 | K 1.97 | Y 2.91 | I 3.44 | W 2.15 | M 1.89 | Q 2.46 | L 4.02 | F 1.95 | C 2.37 | G 1.32 | A 3.2
L5: V 3.76 | R 2.93 | T 2.99 | F 4.35 | W 2 | Q 1.47 | N 1.32 | C 2.26 | M 2.3 | E 1.47 | H 1.76 | I 1.33 | S 2.25 | K 2.25 | D 2.43
I1: T 2.28 | E 1.71 | L 1.85 | A 2.03 | Q 1.7 | V 3.38 | P 1.93 | H 1.56 | G 2.6 | F 1.76 | D 2.17 | K 2.24 | W 1.93 | S 1.99 | N 1.8 | C 1.64 | R 2.17 | Y 2.41 | M 1.7
